Assay results: paper PMC11130540, “Does Acinetobacter calcoaceticus glucose dehydrogenase produce self-damaging H2O2?” (Bioscience Reports, 2024)
Numbering of substitutions follows the chain as printed. Names and notes keep the numbering of the source.

B1: soluble glucose dehydrogenase (sGDH) from Acinetobacter calcoaceticus, wild-type, holo form (enzyme, UniProt P13650 25-478, looked up)
chain: DVPLTPSQFAKAKSENFDKKVILSNLNKPHALLWGPDNQIWLTERATGKILRVNPESGSVKTVFQVPEIVNDADGQNGLLGFAFHPDFKNNPYIYISGTFKNPKSTDKELPNQTIIRRYTYNKSTDTLEKPVDLLAGLPSSKDHQSGRLVIGPDQKIYYTIGDQGRNQLAYLFLPNQAQHTPTQQELNGKDYHTYMGKVLRLNLDGSIPKDNPSFNGVVSHIYTLGHRNPQGLAFTPNGKLLQSEQGPNSDDEINLIVKGGNYGWPNVAGYKDDSGYAYANYSAAANKSIKDLAQNGVKVAAGVPVTKESEWTGKNFVPPLKTLYTVQDTYNYNDPTCGEMTYICWPTVAPSSAYVYKGGKKAITGWENTLLVPSLKRGVIFRIKLDPTYSTTYDDAVPMFKSNNRYRDVIASPDGNVLYVLTDTAGNVQKDDGSVTNTLENPGSLIKFTYKAK
notes: soluble glucose dehydrogenase (sGDH) of Acinetobacter calcoaceticus, UniProt P13650; native open reading frame on plasmid pGP492; printed number + 24 in P13650; Holo enzyme with the prosthetic group PQQ (found cleaved in the crystals) and calcium ions; No tag is named; also called sGDH WT; WT
B2: soluble glucose dehydrogenase (sGDH) from Acinetobacter calcoaceticus, Y343F mutant, holo form (enzyme)
chain: B1 chain with Y343F
notes: soluble glucose dehydrogenase (sGDH) of Acinetobacter calcoaceticus, UniProt P13650, with Y343F; Holo enzyme with PQQ (found cleaved in the crystals) and calcium ions; No tag is named; also called sGDH Y343F; single mutant
B3: soluble glucose dehydrogenase (sGDH) from Acinetobacter calcoaceticus, D143E/Y343F mutant, holo form (enzyme)
chain: B1 chain with D143E, Y343F
notes: soluble glucose dehydrogenase (sGDH) of Acinetobacter calcoaceticus, UniProt P13650, with D143E and Y343F; Holo enzyme with PQQ (found cleaved in the crystals) and calcium ions; No tag is named; also called sGDH D143E/Y343F; Y343F/D143E

Target: the molecule itself
Assay: crystal structure; holo-sGDH (around 10 mg/ml) reconstituted with PQQ before crystallization; hanging drop vapor diffusion at 20°C, 20% (w/v) PEG 6000, 100 mM TRIS pH 8.0, with 2 mM zinc chloride (wild-type) or 200 mM lithium chloride (mutants); two monomers in the asymmetric unit

Protein | stoichiometry N
B1 | 2
B2 | 2
B3 | 2
